PMC7402622 (Science (New York, N.y.), 2020)

How the values were obtained:
[1] = target: T1, stabilized SARS-CoV-2 S ectodomain trimer (SARS-CoV-2, Wuhan-Hu-1 (GenBank …, UniProt P0DTC2, stabilised)); test: SPR
[2] = target: T1, stabilized SARS-CoV-2 S ectodomain …; test: cryo-EM structure

B1: H014 humanized monoclonal antibody (IgG) (antibody, V domains shown)
VH: EVQLVQSGAEVKKPGATVKISCKVSGYSFSNYYIHWVKQAPGKSLEWIGYIDPFNGGTSDNLKFKGAATLTADTSTDTAYMELSSLRSEDTAVYYCARSEYDPYYVMDYWGQGTTVTVSS
VL: IVLTQSPFQSVSPKEKVTITCRASQSISSNLHWYQQKPDQSPKLLIKYASQSISGIPSRFSGSGSGTDFTLTINSLEAEDFGIYFCQQTNFWPYIFGQGTKLEIL
binding result [1]: binds

B2: H014 Fab fragment (Fab, V domains shown)
VH: B1 VH
VL: B1 VL
binding result [2]: binds
